Article PMC6244167

Key:
[1] = target: vasoinhibin of 79 residues (first 79 residues of human PRL) (human); assay: non-reducing Western blot; conditioned media of transduced HEK293T/17 cells run without reduction and immunoblotted for PRL; disulfide-bonded dimers seen as bands of ~18 kDa and ~28 kDa
[2] = target: vasoinhibin of 123 residues (first 123 residues of human PRL) (human); assay: as above

Substance | stoichiometry N [1] | stoichiometry N [2]
vasoinhibin of 79 residues (first 79 residues of human PRL) (domain or fragment) | 2 | –
vasoinhibin of 123 residues (first 123 residues of human PRL) (domain or fragment) | – | 2
